Laboratory results from FireProtDB (doi:10.1111/j.1432-1033.1996.00516.x).

Conditions: Aspergillus oryzae (strain ATCC 42149 / RIB 40), GdnHCl, Fluorescence, reversible: yes, whole UniProt chain shown
[1] = pH 5, 10 °C, Sodium acetate 0.1 M
[2] = pH 5, 25 °C, Sodium acetate 0.1 M

B1: Guanyl-specific ribonuclease T1 wild type, P00651 (protein)
chain: MMYSKLLTLTTLLLPTALALPSLVERACDYTCGSNCYSSSDVSTAQAAGYQLHEDGETVGSNSYPHKYNNYEGFDFSVSSPYYEWPILSSGDVYSGGSPGADRVVFNENNQLAGVITHTGASGNNFVECT
- denaturant m value [1]: 2.49 kcal/mol/M
- denaturant midpoint (higher = more stable) [1]: 3.94 M
- denaturant m value [2]: 2.75 kcal/mol/M
- denaturant midpoint (higher = more stable) [2]: 3.63 M
- denaturant m value (pH 8, 10 °C, PIPES 0.1 M): 2.63 kcal/mol/M
- denaturant midpoint (higher = more stable) (pH 8, 10 °C, PIPES 0.1 M): 3.21 M
- denaturant m value (pH 8, 25 °C, PIPES 0.1 M): 2.46 kcal/mol/M
- denaturant midpoint (higher = more stable) (pH 8, 25 °C, PIPES 0.1 M): 2.4 M
